Data from the supplement of paper PMC9170038.

Tested on: MS2 coat protein
Test: apparent KD of MS2 coat protein; designed switch direction (-1 OFF switch, 1 ON switch): 1; higher = weaker reporter binding
How it was run: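 The apparent KD reported per design is the median over clusters of curve fits to normalised cluster fluorescence. The RNA switches were transcribed on Illumina chips by stalled E. coli RNA polymerase. SNAP-549-labelled MS2 coat protein was titrated from 0.7 or 1.5 nM, doubling up to 3 µM, in Tris-HCl pH 7.5 buffer containing KCl, MgCl2, BSA, DTT, tRNA and Tween-20, with no input, 200 uM small-molecule ligand, or an oligonucleotide input.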

[1] = input ligand: microRNA oligo, concentration not stated
[2] = Eterna round: R95, input ligand: FMN 200 uM
[3] = Eterna round: R95, input ligand: microRNA oligo, concentration not stated
[4] = Eterna round: R95, input ligand: none

| Sequence | apparent KD of MS2 coat protein [1] | apparent KD of MS2 coat protein (input ligand: FMN 200 uM) | apparent KD of MS2 coat protein (input ligand: none) | apparent KD of MS2 coat protein [2] | apparent KD of MS2 coat protein [3] | apparent KD of MS2 coat protein [4] |
| --- | --- | --- | --- | --- | --- | --- |
| AUACAUGAGGAUCACCCAUGUAAUUAAUUAAUUAAUAAGAUCAAGGAUAUCAGCUCGAUUAGAGCUGAGAAGGUGAUCACAUGU [SSNG3/21-D2] (Eterna round: R96, puzzle: Same State NG 3) | 0.272 µM | – | – | – | – | – |
| AUAGUUGCCGAAGGAUAUGAUGAGGAUCACCCAUCAGAAGGUUGGCUAUUGGGUGGACAUGAGGAUCACCCAUGUCCUUUGGUU (Eterna round: R96, puzzle: Same State NG 1) | 0.0689 µM | 0.0582 µM | 0.113 µM | – | – | – |
| AUAGUUUCCGAAGGAUAUGAUGAGGAUCACCCAUCAGAAGGUUGGCUAUUGGGCGGACAUGAGGAUCACCCAUGUCUUUCGGUU (Eterna round: R96, puzzle: Same State NG 1) | 0.0768 µM | 0.0847 µM | 0.101 µM | – | – | – |
| AUAGUUUCCGAAGGAUAUGAUGAGGAUCACCCAUCAGAAGGUUGGCUAUUGGGCUGACAUGAGGAUCACCCAUGUUCUGGAGUU (Eterna round: R96, puzzle: Same State NG 1) | 0.0395 µM | 0.0398 µM | 0.0645 µM | – | – | – |
| AUCAAAACAAGUUGCAGUGUUCGUCUUUCACAUGAGGAUCACCCAUGUAAUAGCCCAGUGGAAGCGCUCAGGCCACC [Usbi] (puzzle: Sensor for hsa-mir-208a) | – | – | – | 0.225 µM | 0.0577 µM | 0.21 µM |
| AUCCUACAUGAGGAUCACCCAUGUGACGCCUCGAUAGGAUAUGCGUGUGCCUUGGCGCAUGCAGAAGGAUUGGAGC [JL Aveso mod 5] (puzzle: Same State 1) | – | – | – | 0.0884 µM | 0.0726 µM | 0.0785 µM |
| AUGAAGAAUUAAGGAUAUUGAAUACAUAUGUUUAACAUGAGGAUCACCCAUGUGGGUUGCGGUAUCGAGAAGGUAAAUUAAUAG [Mat - same State NG 2 - JL mod - D90] (Eterna round: R96, puzzle: Same State NG 2) | 0.156 µM | 0.142 µM | 0.143 µM | – | – | – |
| AUGAAUUUGCGAGGAUAUCGUUUGUUGAAGUUACGAGAAGGCGCUCACUUUACAUGAGGAUCACCCAUGUUUAUGUUUUAUGAU [JR_SSNG1_Sub075] (Eterna round: R96, puzzle: Same State NG 1) | 0.0216 µM | 0.022 µM | 0.0311 µM | – | – | – |
| AUGAUUUAUGCAGGAUAUGAUUAACAUGAGGAUCACCCAUGUGGUGUUGUGAGUAAGGAGAGUGAUCAGAAGGGCAUUUUUUUU [JMF's solution 71] (Eterna round: R96, puzzle: Same State NG 2) | 0.402 µM | 1.17 µM | 0.506 µM | – | – | – |
| AUGCCAAAUCGAGGAUAUGGAGCCUUAUUGGCUCCAGAAGGUGAGACAUGAGGAUCACCCAUGUGGCAGUGGUCUAAUGACCAC [Fiskers NG1ss - 32] (Eterna round: R96, puzzle: Same State NG 1) | 0.27 µM | 0.174 µM | 0.581 µM | – | – | – |
| AUUAAACAUGAGGAUCACCCAUGUCAACAAAGUCGAGGAUAUGGGCAAAUAAAAUAAGAACCAGAAGGCGAAUUAU [salish99_ss1_r3_079] (puzzle: Same State 1) | – | – | – | 0.0326 µM | 0.337 µM | 0.312 µM |
| AUUAAACAUGAGGAUCACCCAUGUCAACAAAGUCGAGGAUAUGGGCAAAUAUUAUAAUAACCAGAAGGCGAAUAAU [salish99_ss1_r3_082] (puzzle: Same State 1) | – | – | – | 0.0274 µM | 0.212 µM | 0.149 µM |
| AUUAAUAAUCGAGGAUAUCACGUCGAUUAGACGUGAGAAGGCGAUCAUAACAUGAGGAUCACCCAUGUAUUACAUGAAGUUAAU [SSNG1/4-B2] (Eterna round: R96, puzzle: Same State NG 1) | 0.0237 µM | 0.0253 µM | 0.0282 µM | – | – | – |
| AUUAUUAAUGCAGGAUAUGAUUAACAUGAGGAUCACCCAUGUGGUGUUGUGAGUAAGGAGAGUGAUCAGAAGGGCAUUUUUGUU [JMF's solution 14] (Eterna round: R96, puzzle: Same State NG 2) | 0.33 µM | 0.811 µM | 0.629 µM | – | – | – |
| AUUAUUAAUGCAGGAUAUGAUUAACAUGAGGAUCACCCAUGUGGUGUUGUGAGUAAGGAGAGUGAUCAGAAGGGCAUUUUUUUG [JMF's solution 19] (Eterna round: R96, puzzle: Same State NG 2) | 0.423 µM | 0.42 µM | 0.452 µM | – | – | – |
| AUUCUUAAUGCAGGAUAUGAUUAACAUGAGGAUCACCCAUGUGGUGUUGUGAGUAAGGAGAGUGAUCAGAAGGGCAUUUUUUUU [JMF's solution 32] (Eterna round: R96, puzzle: Same State NG 2) | 0.271 µM | 0.316 µM | 0.21 µM | – | – | – |

| Sequence | apparent KD of MS2 coat protein [1] | apparent KD of MS2 coat protein (input ligand: FMN 200 uM) | apparent KD of MS2 coat protein (input ligand: none) | apparent KD of MS2 coat protein [2] | apparent KD of MS2 coat protein [3] | apparent KD of MS2 coat protein [4] |
| --- | --- | --- | --- | --- | --- | --- |
| AUUGCUUUCGCAGGAUAUGAUGCGAAAAUUGCGUCAGAAGGGUGGAGUAUCUCAUUGCAAGAGGACAUGAGGAUCACCCAUGUC [SameState NG1 #87] (Eterna round: R96, puzzle: Same State NG 1) | 0.14 µM | 0.0405 µM | 0.216 µM | – | – | – |
| AUUUUUGAUGCAGGAUAUGAUUAACAUGAGGAUCACCCAUGUGGUGUUGUGAGUAAGGAGAGUGAUCAGAAGGGCAUUUUUUUU [JMF's solution 93] (Eterna round: R96, puzzle: Same State NG 2) | 0.269 µM | 0.81 µM | 0.365 µM | – | – | – |
| CAAGCUUGGGUCGUCCCGCUCGUCUUCAAACAUGAGGAUCACCCAUGUAUACUCUUCACAUCAAUUCUAUCUCUUAA [Ralasoerin] (puzzle: Sensor for hsa-mir-208a) | – | – | – | 0.255 µM | 0.0228 µM | 0.289 µM |
| CAAGUACAUGAGGAUCACCCAUGUGGAAGAGAUGCAGGAUAUGUGGGAGAAGGGAGUGUAACAGAAGGGCAAGGAG [JR_SS!_Sub019] (puzzle: Same State 1) | – | – | – | 0.113 µM | 0.0718 µM | 0.109 µM |
| CAGCGCUGUCGAGAGGAUAUGCUGUGAUGGACAUGAGGAUCACCCAUGUUAGCGAUAGCAUUACUGUAGAAGGCUCUACAGCUGC [Soteed - 15] (puzzle: Same State 2) | – | – | – | – | 0.0109 µM | – |
| CAGCGCUGUCGAGAGGAUAUGUGGUGAUGGACAUGAGGAUCACCCAUGUUAGCGACAGUAUCACGGCAGAAGGCUCUACCGCUGC [Soteed Omei mod 31] (puzzle: Same State 2) | – | – | – | 0.0561 µM | 0.0381 µM | 0.044 µM |
| CAGUAUCGCGGAGGAUAUGGGCUGAGACCGGAGCAACUCUGGUCAACAUGAGGAUCACCCAUGUCCCAGAAGGCCGCGAUGCUG [Enquoninso] (Eterna round: R96, puzzle: Same State NG 2) | 0.0622 µM | 0.0184 µM | 0.0961 µM | – | – | – |
| CAUCCCUCCACAGGAUAUCGACCAAUAAAACGGCGAGAAGGGUGGCCACAUGAGGAUCACCCAUGUGGAAUUGGAUGAACUACC [Atusmaceor] (Eterna round: R96, puzzle: Same State NG 1) | 0.12 µM | 0.141 µM | 0.077 µM | – | – | – |
| CCAACAUACAAUUUAAGAUCACAUGAGGAUCACCCAUGUAUGCAGGAUAUCAGCUCGUUUAGAGCUGAGAAGGGCAAUUUAAUU [SSNG3/1-A3] (Eterna round: R96, puzzle: Same State NG 3) | 0.158 µM | 0.099 µM | 0.202 µM | – | – | – |
| CCAUAACUGUGAGGAUAUUGUUGCGUUUAGUGACGAGAAGGCAUUCAUGUGAUAUAUACAUACAUGAGGAUCACCCAUGUUGUA [NG 1 30P] (Eterna round: R96, puzzle: Same State NG 1) | 0.0214 µM | – | – | – | – | – |
| CCAUAGUACAAUUUAGAUCUACAUGAGGAUCACCCAUGUACUGAGGAUAUCAGCUCGAAUAGAGCUGAGAAGGCAGAAUUAAUU [SSNG3/5-A1] (Eterna round: R96, puzzle: Same State NG 3) | 0.103 µM | – | – | – | – | – |
| CCCGCGUUUCGCGCCUACAUGAGGAUCACCCAUGUUUGUAGGCAGGAUAUCGUCCGCUCUGCGGGCGAGAAGGGCUGUCGUGGU [salish99_SSNG3_R04_030] (Eterna round: R96, puzzle: Same State NG 3) | 0.0535 µM | 0.0657 µM | 0.0701 µM | – | – | – |
| CCCUGAGGCAGCCUACAGGGACAUGAGGAUCACCCAUGUACACAGGAUAUCGAGGGCUCCGCCCUCGAGAAGGGUGAUCAGACU [Redied] (Eterna round: R96, puzzle: Same State NG 3) | 0.161 µM | 0.321 µM | 0.0974 µM | – | – | – |
| CCGAAAGGAGUAGGAUAUGUAGGAUAUGCCUACAUGAGGAUCACCCAUGUUCGCAUGGCAGAAGGACAGAAGGACACGGAAACG [pwkr ssNG2 2FMN + 1F5.12] (Eterna round: R96, puzzle: Same State NG 2) | 0.113 µM | 0.101 µM | 0.293 µM | – | – | – |
| CCGAUCUACCGAAAGGUAGAUGGGCUUGUACAUGAGGAUCACCCAUGUCAGUACAAGCUUUUUGCUCCUCUUAUCCU [salish99-hsa-208a-40] (Eterna round: R96, puzzle: Sensor for hsa-mir-208a) | 0.014 µM | 0.0418 µM | 0.0427 µM | – | – | – |
| CCGCCGGGAACCCGGCGGAAACAUGAGGAUCACCCAUGUACACAGGAUAUCGUGACAUUAACAAACGAGAAGGGUGGCCGAGAC [Atre] (Eterna round: R96, puzzle: Same State NG 3) | 0.0916 µM | 0.345 µM | 0.137 µM | – | – | – |
